Biological target: activation domain-fused yeast RPB4 protein (RPB4 in JG4-5) (yeast (Saccharomyces cerevisiae)) (UniProt P20433)
Assay: two-hybrid interaction trap in yeast, beta-galactosidase assay with and without activation domain-fused RPB4

“LexA-RPB7 fusion protein (yeast RPB7) (from UniProt P34087)” gave a degree of enhancement of activation (beta-galactosidase assay) of 60 fold.
